Measured values published in FireProtDB (doi:10.1021/acs.biochem.6b01187).

Conditions: Equus caballus, CD; for denaturant m value / denaturant midpoint (higher = more stable) / unfolding free energy: 22 °C, GdnHCl; for Tm / change of melting temperature, mutant - wild type (higher = more stable) / unfolding enthalpy (calorimetric): Thermal, transition: 2, reversible: yes (>83%)
[1] = pH 4.5, sodium acetate buffer 10 mM, NaCl 100 mM, structure 1HRC
[2] = pH 7.4, sodium phosphate buffer 100 mM, structure 1HRC
[3] = pH 4.5, sodium acetate buffer 10 mM, NaCl 100 mM
[4] = pH 7.4, sodium phosphate buffer 100 mM

Sequence of Cytochrome c wild type, P00004 (P00004 whole entry): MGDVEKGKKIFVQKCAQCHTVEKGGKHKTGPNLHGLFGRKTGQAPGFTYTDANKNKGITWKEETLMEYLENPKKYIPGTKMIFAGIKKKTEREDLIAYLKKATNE
Sequence of Cytochrome c T50V, P00004 (P00004 whole entry T50V): as the sequence (P00004 whole entry) above, with T50V counted along it
Sequence of Cytochrome c M81A, P00004 (P00004 whole entry M81A): as the sequence (P00004 whole entry) above, with M81A counted along it
Sequence of Cytochrome c Y68R|M81A, P00004 Y68R M81A (P00004 whole entry Y68R/M81A): as the sequence (P00004 whole entry) above, with Y68R, M81A counted along it

Substance	denaturant m value [1] [kcal/mol/M]	denaturant midpoint (higher = more stable) [1] [M]	unfolding free energy [1] [kcal/mol]	Tm [1] [°C]	change of melting temperature, mutant - wild type (higher = more stable) [1] [°C]	unfolding enthalpy (calorimetric) [1] [kcal/mol]	denaturant m value [2] [kcal/mol/M]	denaturant midpoint (higher = more stable) [2] [M]	unfolding free energy [2] [kcal/mol]	Tm [2] [°C]	change of melting temperature, mutant - wild type (higher = more stable) [2] [°C]	unfolding enthalpy (calorimetric) [2] [kcal/mol]	further results
Cytochrome c Y68R|M81A, P00004 Y68R M81A	2.29	1.4	3.2	55	-16	78.4	2.46	1.7	4.18	71	-13.1	82.2	
Cytochrome c wild type, P00004													denaturant m value [3]: 2.34 kcal/mol/M; denaturant midpoint (higher = more stable) [3]: 2.6 M; unfolding free energy [3]: 6 kcal/mol; Tm [3]: 71 °C; unfolding enthalpy (calorimetric) [3]: 49 kcal/mol; denaturant m value [4]: 2.75 kcal/mol/M; denaturant midpoint (higher = more stable) [4]: 2.7 M; unfolding free energy [4]: 7.43 kcal/mol; Tm [4]: 84.1 °C; unfolding enthalpy (calorimetric) [4]: 86 kcal/mol
Cytochrome c M81A, P00004	2.77	2.6	2.77	76	5	83.4	2.46	2.71	6.67	84	-0.1	85.3	
Cytochrome c T50V, P00004	1.6	2.5	3.99	72	1	82.5	2.68	2.7	7.22	86	1.9	83.9	
